Experiments:
Assay in all cases: GC-MS of hexane phase, Hanes-Woolf plot
Assay type in all cases: biochemical, Lavandula angustifolia
Conditions in all cases: 25 mM Tris-HCl pH 7.5, 10 mM MgCl2, 1 mM MnCl2, 30 °C, 2 h
[1] = substrate: CC(C)=CCC/C(C)=C/COP(=O)(O)OP(=O)(O)O
Excerpt: GC-MS of hexane phase, Hanes-Woolf plot on ∆1–58

[2] = substrate: CC(C)=CCC/C(C)=C/COP(=O)(O)OP(=O)(O)O; remark: listed apart in the source
Excerpt: GC-MS of hexane phase, Hanes-Woolf plot on ∆59–74

[3] = substrate: CC(C)=CCC/C(C)=C/COP(=O)(O)OP(=O)(O)O; remark: listed apart in the source
Excerpt: GC-MS of hexane phase, Hanes-Woolf plot on ∆578–602

[4] = substrate: CC(C)=CCC/C(C)=C/COP(=O)(O)OP(=O)(O)O; remark: listed apart in the source
Excerpt: GC-MS of hexane phase, Hanes-Woolf plot on ∆1–74

[5] = substrate: CC(C)=CCC/C(C)=C/COP(=O)(O)OP(=O)(O)O; remark: listed apart in the source
Excerpt: GC-MS of hexane phase, Hanes-Woolf plot on LaBPPS (WT)

B1: ∆1–58 (Lavandula angustifolia subsp. angustifolia) (protein)
chain: LDSTRRSGMYKPTLWDFDRIQSLNSVYTEEKYSTRACDLIQQVKKLLEESDWFRQLQLIDDLQRLGLSYRFDDEINLILNTIYFEKKFCEKEMDLYSTSLAFRLLRQHGLKVSQEVFDCFKNEEGDFEARLGDETNGILEMCEASFLATEGEETLELARLFTTNILQKKLDDERNELLIMDDYLRTLIRHSLDLPLYWRVQRPSARWFIEAYATRSDMNPIMLELAKLDFNIVQATHQEELKQVSRWWKESRLAEKLPFARDRVVENYLWNRGMLFPPQYGYPRIMNAKLFVLITVLDDIYDVYGTLEETQLFTNLITRWDVEAIGQLPEYMRICYMAIDNNINELAYEVLKQHGLLIIQDLRKFWADLCVAYGKEAEWYYTGYKPTLEEYLEVAWVSISAHLILGYMFFLTSNPIEKEASQSLSNYHNIIRNSAMVLRLADDLGTSPYEMQRGDVPKAVECYMNENGASTEEAREYVKHLLREVWKETNGERFKESPFTPSFMRICADLGRMAQFMYQHGDGHGIRNLQMEDRIQSLIFEPIV
notes: N-terminal truncation, residues 1-58 deleted; E. coli, Talon resin, thrombin-cleaved
Q: For B1, which Km [1] is on record?
A: 28.12 ± 1.75 µM

Q: And the kcat [1]?
A: 0.113 ± 0.00583 s⁻¹

B2: ∆59–74 (Lavandula angustifolia subsp. angustifolia; DEL59-74) (protein)
chain: MTAARSFMAINSNMTTDHLHKFGKKNLEFGQGYSCNNASPMRLRPCCSLKLSTNAESQFDRIQSLNSVYTEEKYSTRACDLIQQVKKLLEESDWFRQLQLIDDLQRLGLSYRFDDEINLILNTIYFEKKFCEKEMDLYSTSLAFRLLRQHGLKVSQEVFDCFKNEEGDFEARLGDETNGILEMCEASFLATEGEETLELARLFTTNILQKKLDDERNELLIMDDYLRTLIRHSLDLPLYWRVQRPSARWFIEAYATRSDMNPIMLELAKLDFNIVQATHQEELKQVSRWWKESRLAEKLPFARDRVVENYLWNRGMLFPPQYGYPRIMNAKLFVLITVLDDIYDVYGTLEETQLFTNLITRWDVEAIGQLPEYMRICYMAIDNNINELAYEVLKQHGLLIIQDLRKFWADLCVAYGKEAEWYYTGYKPTLEEYLEVAWVSISAHLILGYMFFLTSNPIEKEASQSLSNYHNIIRNSAMVLRLADDLGTSPYEMQRGDVPKAVECYMNENGASTEEAREYVKHLLREVWKETNGERFKESPFTPSFMRICADLGRMAQFMYQHGDGHGIRNLQMEDRIQSLIFEPIV
notes: internal deletion of residues 59-74; E. coli, Talon resin, thrombin-cleaved
Q: B2 was tested. Which Km [2] did it give?
A: 38.49 ± 2.58 µM

Q: And the kcat [2]?
A: 0.0562 ± 0.007 s⁻¹

B3: ∆578–602 (Lavandula angustifolia subsp. angustifolia) (protein)
chain: MTAARSFMAINSNMTTDHLHKFGKKNLEFGQGYSCNNASPMRLRPCCSLKLSTNAESQLDSTRRSGMYKPTLWDFDRIQSLNSVYTEEKYSTRACDLIQQVKKLLEESDWFRQLQLIDDLQRLGLSYRFDDEINLILNTIYFEKKFCEKEMDLYSTSLAFRLLRQHGLKVSQEVFDCFKNEEGDFEARLGDETNGILEMCEASFLATEGEETLELARLFTTNILQKKLDDERNELLIMDDYLRTLIRHSLDLPLYWRVQRPSARWFIEAYATRSDMNPIMLELAKLDFNIVQATHQEELKQVSRWWKESRLAEKLPFARDRVVENYLWNRGMLFPPQYGYPRIMNAKLFVLITVLDDIYDVYGTLEETQLFTNLITRWDVEAIGQLPEYMRICYMAIDNNINELAYEVLKQHGLLIIQDLRKFWADLCVAYGKEAEWYYTGYKPTLEEYLEVAWVSISAHLILGYMFFLTSNPIEKEASQSLSNYHNIIRNSAMVLRLADDLGTSPYEMQRGDVPKAVECYMNENGASTEEAREYVKHLLREVWKETNGERFKESPFTPSFMRICADLGRMAQFMYQ
notes: C-terminal truncation, residues 578-602 deleted; E. coli, Talon resin, thrombin-cleaved
Q: For B3, which Km [3] is on record?
A: 14.83 ± 1.09 µM

Q: What about the kcat [3] of the same protein?
A: 0.195 ± 0.0143 s⁻¹

B4: ∆1–74 (Lavandula angustifolia subsp. angustifolia) (protein)
chain: FDRIQSLNSVYTEEKYSTRACDLIQQVKKLLEESDWFRQLQLIDDLQRLGLSYRFDDEINLILNTIYFEKKFCEKEMDLYSTSLAFRLLRQHGLKVSQEVFDCFKNEEGDFEARLGDETNGILEMCEASFLATEGEETLELARLFTTNILQKKLDDERNELLIMDDYLRTLIRHSLDLPLYWRVQRPSARWFIEAYATRSDMNPIMLELAKLDFNIVQATHQEELKQVSRWWKESRLAEKLPFARDRVVENYLWNRGMLFPPQYGYPRIMNAKLFVLITVLDDIYDVYGTLEETQLFTNLITRWDVEAIGQLPEYMRICYMAIDNNINELAYEVLKQHGLLIIQDLRKFWADLCVAYGKEAEWYYTGYKPTLEEYLEVAWVSISAHLILGYMFFLTSNPIEKEASQSLSNYHNIIRNSAMVLRLADDLGTSPYEMQRGDVPKAVECYMNENGASTEEAREYVKHLLREVWKETNGERFKESPFTPSFMRICADLGRMAQFMYQHGDGHGIRNLQMEDRIQSLIFEPIV
notes: N-terminal truncation, residues 1-74 deleted; E. coli, Talon resin, thrombin-cleaved
Q: For B4, which Km [4] is on record?
A: 41.72 ± 2.15 µM

Q: What about the kcat [4] of the same protein?
A: 0.0532 ± 0.002 s⁻¹

B5: LaBPPS (WT) (Lavandula angustifolia subsp. angustifolia) (protein)
chain: MTAARSFMAINSNMTTDHLHKFGKKNLEFGQGYSCNNASPMRLRPCCSLKLSTNAESQLDSTRRSGMYKPTLWDFDRIQSLNSVYTEEKYSTRACDLIQQVKKLLEESDWFRQLQLIDDLQRLGLSYRFDDEINLILNTIYFEKKFCEKEMDLYSTSLAFRLLRQHGLKVSQEVFDCFKNEEGDFEARLGDETNGILEMCEASFLATEGEETLELARLFTTNILQKKLDDERNELLIMDDYLRTLIRHSLDLPLYWRVQRPSARWFIEAYATRSDMNPIMLELAKLDFNIVQATHQEELKQVSRWWKESRLAEKLPFARDRVVENYLWNRGMLFPPQYGYPRIMNAKLFVLITVLDDIYDVYGTLEETQLFTNLITRWDVEAIGQLPEYMRICYMAIDNNINELAYEVLKQHGLLIIQDLRKFWADLCVAYGKEAEWYYTGYKPTLEEYLEVAWVSISAHLILGYMFFLTSNPIEKEASQSLSNYHNIIRNSAMVLRLADDLGTSPYEMQRGDVPKAVECYMNENGASTEEAREYVKHLLREVWKETNGERFKESPFTPSFMRICADLGRMAQFMYQHGDGHGIRNLQMEDRIQSLIFEPIV
notes: full-length, codon-optimised gene, pHXGWA, E. coli Rosetta (DE3) pLysS, Talon resin, thrombin-cleaved; monomer by DLS
Q: For B5, which Km [5] is on record?
A: 29.37 ± 1.21 µM

Q: What about the kcat [5] of the same protein?
A: 0.104 ± 0.00783 s⁻¹
